According to publication doi:10.1101/2024.10.13.617916:

Target: KaiB labeled with 6-iodoacetamidofluorescein (KaiB-6IAF) (Synechococcus elongatus) (UniProt Q79PF5)
Test: other fluorescence titration

Chain of UniProt Q79PF5 (Q79PF5 whole entry): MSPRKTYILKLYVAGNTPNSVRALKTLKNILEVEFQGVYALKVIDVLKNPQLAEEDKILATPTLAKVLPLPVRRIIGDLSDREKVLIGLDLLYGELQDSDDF

decrease of KaiB-6IAF fluorescence intensity at 3.5 uM KaiC: 60% | maximal quenching of KaiB-6IAF: 40%
B1: KaiC (natural protein)
chain: MTSAEMTSPNNNSEHQAIAKMRTMIEGFDDISHGGLPIGRSTLVSGTSGTGKTLFSIQFLYNGIIEFDEPGVFVTFEETPQDIIKNARSFGWDLAKLVDEGKLFILDASPDPEGQEVVGGFDLSALIERINYAIQKYRARRVSIDSVTSVFQQYDASSVVRRELFRLVARLKQIGATTVMTTERIEEYGPIARYGVEEFVSDNVVILRNVLEGERRRRTLEILKLRGTSHMKGEYPFTITDHGINIFPLGAMRLTQRSSNVRVSSGVVRLDEMCGGGFFKDSIILATGATGTGKTLLVSRFVENACANKERAILFAYEESRAQLLRNAYSWGMDFEEMERQNLLKIVCAYPESAGLEDHLQIIKSEINDFKPARIAIDSLSALARGVSNNAFRQFVIGVTGYAKQEEITGLFTNTSDQFMGAHSITDSHISTITDTIILLQYVEIRGEMSRAINVFKMRGSWHDKAIREFMISDKGPDIKDSFRNFERIISGSPTRITVDEKSELSRIVRGVQEKGPES
